{
  "source": "the DeepSol protein solubility set",
  "data": [
    {"assay": "soluble on expression in E. coli; label from the status in PepcDB or PDB records", "values": [
      {"sequence": "MKRDDLMQIIKRDGHVADFDPDKIYQAIIKAARTVYVIDDTWRQNLTHVTKKVVIDLEEAHVERPTINMVQSLVENRLMDAGYITIAEHYISYRLQRDLERNGYGDKIVVHLRFEQIK", "soluble on expression in E. coli": "soluble"},
      {"sequence": "MKAIILAGGHSVRFGKPKAFAEVNGETFYSRVIKTLESTNMFNEIIISTNAQLATQFKYPNVVIDDENHNDKGPLAGIYTIMKQHPEEELFFVVSVDTPMITGKAVSTLYQFLVSHLIENHLDVAAFKEDGRFIPTIAFYSPNALGAITKALHSDNYSFKNIYHELSTDYLDVRDVDAPSYWYKNINYQHDLDALIQKLLEHHHHHH", "soluble on expression in E. coli": "soluble"},
      {"sequence": "SEPTAPSLTEEDLTEVKKDALENLRVYLCEKIIAERHFDHLRAKKILSREDTEEISCRTSSRKRAGKLLDYLQENPKGLDTLVESIRREKTQNFLIQKITDEVLKLRNIKLEHLKGLKCSSCEPFPDGATNNLSRSNSDESNFSEKLRASTVMYHPEGESSTTPFFSTNSSLNLPVLEVGRTENTIFSSTTLPRPGDPGAPPLPPDLQLEEEGTCANSSEMFLPLRSRTVSRQ", "soluble on expression in E. coli": "soluble"},
      {"sequence": "KELIMCLSGSILRSATQQYSVGDYIEINGLRGRVVDINLLNTLMMQVGPNPLVGQLAGTTVSFPNSLLLSHPVRRDNILGDYVIHTVEIPVPIHLDSDEAVCRLKAVLEPLCAPYIPAIQRHLENVQAEKLFITPAARPRVTRVPYDDKAYRIIVRFASPVSKRLEIQQAVMDEFLRVQYRLLNHPAGSETL", "soluble on expression in E. coli": "not soluble"},
      {"sequence": "MGSDKIHHHHHHMGFYEEMIRRIAADADPAACVEEIRIYANWVLVKTGKWSISTYFHGMPGFTDPAGMGTWMGDWIGRPARAAALELLVSREILKRSVGMACLKSLLPDPPATIAGGAIELVEPAACRIPTCFIGYFKTAAAWREKGYPVTIVELFPRPGDIHWNEADEVLEKAELVLMTGLTVVNETLEAVIRRTPSARMRIIMGPTVPASPVLFDYGIDMLGITQIDDVELMSNYALLGGGSIANAPAGALRSLNMARDLRALQERISALAR", "soluble on expression in E. coli": "not soluble"},
      {"sequence": "MRILDYDKVIERILEFIREKGNNGVVIGISGGVDSATVAYLATKALGKEKVLGLIMPYFENKDVEDAKLVAEKLGIGYKVINIKPIVDSFVENLELNLDRKGLGNIMSRTRMIMLYAHANSLGRIVLGTSNRSEFLTGYFTKWGDGASDYAPIINLYKTEVWEIAKRIGVPERIVKKKPSAGLWEGQTDEDELGISYNLLDEILWRMIDLKIGKEEIAKDLGIPLSLVERVEELIKKSEHKRRLPIGPSFEDLIVGP", "soluble on expression in E. coli": "soluble"},
      {"sequence": "MTEYKLVVVGDGGVGKSALTIQLIQNHFVEEYDPTIEDSYRKQVVIDGETCLLDILDTAGQEEYSAMRDQYMRTGEGFLLVFAVNEAKSFENVANYREQIRRVKDSDDVPMVLVGNKCDLSSRSVDFRTVSETAKGYGIPNVDTSAKTRMGVDEAFYTLVREIRKHRERHDNNKPQKKKKCQIM", "soluble on expression in E. coli": "not soluble"},
      {"sequence": "MTATLDDARAALDRIADPASGQGLVKAGLVQGLVVRNGRAGFMLEVPASVVASYAPVREAAEKALAALPGVEQAQVVLTAQAAEGATRVRKGAKISEDPQARMVPPPEAEKPQHVRHVIAVASGKGGVGKSTVSTNLAVAFAKMGLRVGLLDADIYGPSAPKMMGVDGDPLFENEKLQPLEAHGVKLMSIGFIVDEGKAMIWRGPMASSAVRQMIHDVAWGSEAQPLDVLVVDLPPGTGDVQLTLVQKLRIDGAVLVTTPQEIALIDARRAAAMFEKTATPILGLIENMAFFADPSTGAPIPIFGEGGGVAEAARLNVPLLGRVPIEIAVRLGGDQGVPAVIGEPKGQAAEVFIGAAKVLWKSVSHLEHHHHHH", "soluble on expression in E. coli": "soluble"},
      {"sequence": "MGSDKIHHHHHHMMPYLAKILLYPVKSLDGVEVEKVGVLASGALQHDREFAIFDERGKFVNGKRHAKIHLLRVQFALFNRTISLQIPGGNSQQVFHLDEERQALEATLSNYFEFAVTLRQNSLMGFPDDTHSPGPTVISTATLTEVASWFPGLSVDEIRRRMRANIEIDGVPAFWEDRLFSEQGDLVSFRVGDVDFFGANPCQRCIVPTRDSYSGEAYPSFQKIFATQRQATLPNWVASSPFNHFYRLSVNTQLPISSAGKILQIGDGVDIFP", "soluble on expression in E. coli": "not soluble"},
      {"sequence": "MAQVKAEYDFQSQPNTGELSISAGEVLTVIRENIDGGWIEGRNVRGSVGLFPESYVTPYQASRPPPVLPPPLPPTSSGPPAASSRPFDDWGGASEVAAPPSYGAQHHHQPTPSVPEVTRSSYPSQNDDFDDEWTDEDDEQEPTRPNVQSSIGSNSRRDLSRSHSEHGGPDRGSNKVNKNINRFSNFVKSGVEAYVIGESKTTSQISERHEVVMNNGIIQWKPIQQYYTCIVDKPKKESKLKGLKSFIAYSITSSLTNIQRQVSRRYKHFDWLHEQLSAKYVLIPIPPLPEKQVAGRYEEDLIDHRKHILQLWVNKICRHPVLSQSEVWLHFISCTDEKDWKNGKRRAEKDEYIGGAFLNCITVPHQPLDPNNVDMQVERFQRSVKTSEEAMRVMQERMNMFQKVFAGPVKQNWQKMGSAFKTLQQSFEIDETVASRRLTEALAYTASEYHEIGQVFDAHTKNDMEPVLENLYSYKGTVQNVPDIIQVHKQAVQKFRDSEGRLSSAEAEKMKQRIDAMSYTVIAEVQHQTAEKVEDMKSTMGTYLKKQAMFYQEVATKLTSLAARYD", "soluble on expression in E. coli": "not soluble"},
      {"sequence": "GEDKKGGTKPSNEAALTKTENLDFRLSFNKIKVTTDQNHFSGGTSIEQLKQWFGDPNKSEQRNAGNITLDSYTWVKDGAVINAQLYKNSTVARSISNFSFSREAKIGKEDYDELKIGESYKKIVEKLGEPDVLSQSMSSDKEEMQTVWSSGIKTKSSSATIELYFENGLLKNKTQKDLE", "soluble on expression in E. coli": "soluble"},
      {"sequence": "MSLQVSLNPEWLARNNDEHKIRRNDHRSPFQRDRARILHSAAFRRLQAKTQVHGTSLNDFHRTRLTHSLEAAQIGTGIVAQIKLKQPEFRELLPSDSLIDSLCLAHDIGHPPYGHGGEIALNYMMRDHGGFEGNAQTFRIVTSLEPYTEHHGMNLSRRTLLGLLKYPALLSATRAAIPPPAVAHQRQLKAKDWSPAKGIYDCDLASLDWVLEPLCESDRELLGQMRAEPSSPKEHRKTRFKSLDCSIMELADDIAYGVHDLEDAIVLGMVTRAQWQEAAAAQLAECGDPWFEEHIAELSEMLFSGKHYVRKDAIGGIVNALLTSISVKPVEAPFHNELLAFNAYIEPHMGNALEVLKHFVSQYVIQIPQVQRFEYKGQQLIMDLFEALSADPERLLPQATGEKWRKAQEQDEGMRVICDYIAAMTDAYAQRLHQQLFSAQSHYEGGSHHHHHH", "soluble on expression in E. coli": "soluble"},
      {"sequence": "MVTPSLRLVFVKGPREGDALDYKPGSTIRVGRIVRGNEIAIKDAGISTKHLRIESDSGNWVIQDLGSSNGTLLNSNALDPETSVNLGDGDVIKLGEYTSILVNFV", "soluble on expression in E. coli": "soluble"},
      {"sequence": "MAVTQTRDAVIIGGGHNGLVCAFYLAKAGLKVTVCEARGVVGGAAVTEEFHPGFRNSVASYTVSLLNPRVIADMGLRELGLTFLERPISNFLPISDDKYIKLGGGLERTQEEFRKYSRRDAEVLPAYYAMLDEIGDILRDLAQETPPNLGDGLPGLLRALRQGGRLAFLSRQRKRDLLDLFTKSARDVLDGWFESEPVKAAFGFDAVVGNFASPDTPGSAYVLLHHTFGEVNGKKGAWGHAVGGMGAITQAMAKACEAAGVEILLDAPVEAVHIDGGKAAGVQLVDGRQIMAPIVSANVNPALLYKKLVPPSALTPDFRKAVDGYKNGSGTFRMNVALSELPSFTCLPGKETAEHHQSGIVIAPSLDYMDAAYRDAKGQGISKAPIVEMLIPSSLDTSLAPPGQHVASLFCQQFAPELPDGRSWDDAREAAADLIIDTVDQWAPGFKASVLGRMILSPLDLERKFGLIGGDIMHGHMSLDQLWATRPLLGHASHRAPIAGLYMCGAGTHPGGGVSGNPGRNAAREILRDKDFATAVKLSVVGRLEHHHHHH", "soluble on expression in E. coli": "not soluble"},
      {"sequence": "MNLIKEDMRVKVHMEGNVNGHAFVIEGEGKGKPYEGTQTANLTVKEGAPLPFSYDILTTAVHYGNRVFTKYPEDIPDYFKQSFPEGYSWERTMTFEDKGICTIRSDISLEGDCFFQNVRFKGTNFPPNGPVMQKKTLKWEPSTEKLHVRDGLLVGNINMALLLEGGGHYLCDFKTTYKAKKVVQLPDAHFVDHRIEILGNDSDYNKVKLYEHAVARYSPLPSQVWHHHHHH", "soluble on expression in E. coli": "soluble"},
      {"sequence": "MGSDKIHHHHHHMEKIVQTAGRNALGEFAPEFAHFNDDVLFGENWNNQDIDVKTRSIITVVALMASGITDSSLIYHLQNAKEHGVTQKEIAAVITHVAFYAGWPKAWAVFNLAKEVWEAGEGDLPYEEEAMRAHAKEMAFPIGAPNDGFAQYFSGRSFLAPISTSQIGIFNVTFEPGCRNNWHIHHAKSGGGQILVCVAGRGYYQEEGKEAVEMKPGDCINIPTGVKHWHGAAPDEWFSHLAIEVPGVDCSNEWCEAVSEKEYAGLR", "soluble on expression in E. coli": "not soluble"},
      {"sequence": "MPWWEQNIGMGGGALSAKQQTSADSRTESLQSLSDERRDFIQKSLDAWCANLGYKDSTVNMLTLSRTLCISKDELSVFFDQYLKTTFRIWLGDIRFNAAKKMMLEFPDYSNDIISAECGFSARTYLYRIFKSKEGCTPTEWREEQVANAAPDDKKQD", "soluble on expression in E. coli": "not soluble"},
      {"sequence": "MFGLRTRNQEAESEYRRFIKGLSDSMAMIEFDTRGIILNANDLFLSCVGYTREAIVGKHHSIFCDRGYVQSPRYQQFWDDLKMGKHKRGTFERLTSQRERLVLEASYFPIESEHGQIEKVVKIASDVTQQRLESEQKEAILNALDLSLATIEFDREGYILTANQNFLKTLGYELSDVQGKHHKLFCFDDFYQENPGFWKDLAAGQFKSGQFLRRSASGDKVYIEATYNPIFDPAGNVIKVVKFASDITDKVQRDLNISQAIADSSFIARNASEEATSNVCGAEHSLNEFRTMIEEVLRAVTACDDK", "soluble on expression in E. coli": "not soluble"},
      {"sequence": "MGRAFEYRRAAKEKRWDKMSKVFPKLAKAITLAAKDGGSEPDTNAKLRTAILNAKAQNMPKDNIDAAIKRASSKEGNLSEITYEGKANFGVLIIMECMTDNPTRTIANLKSYFNKTQGASIVPNGSLEFMFNRKSVFECLKNEVENLKLSLEDLEFALIDYGLEELEEVEDKIIIRGDYNSFKLLNEGFESLKLPILKASLQRIATTPIELNDEQMELTEKLLDRIEDDDDVVALYTNIELEHHHHHH", "soluble on expression in E. coli": "soluble"},
      {"sequence": "KKHTGYVGLKNQGATCYMNSLLQTLFFTNQLRKAVYMMPTEGDDSSKSVPLALQRVFYELQHSDKPVGTKKLTKSFGWETLDSFMQHDVQELCRVLLDNVENKMKGTCVEGTIPKLFRGKMVSYIQCKEVDYRSDRREDYYDIQLSIKGKKNIFESFVDYVAVEQLDGDNKYDAGEHGLQEAEKGVKFLTLPPVLHLQLMRFMYDPQTDQNIKINDRFEFPEQLPLDEFLQKTDPKDPANYILHAVLVHSGDNHGGHYVVYLNPKGDGKWCKFDDDVVSRCTKEEAIEHNYGGHDDDLSVRHCTNAYMLVYIRESKLSEVLQAVTDHDIPQQLVERLQEEKRIEAQKRKERQE", "soluble on expression in E. coli": "soluble"},
      {"sequence": "MIHTYEEAIGWIHSRLKFGIKPGLERMRWMLEELGNPERHIKCVHLAGTNGKGSTLTYMRYMLEDAKYKVGTFTSPYIETFNERISVNGTPIADEEITELVKMVKPVVEKLDETDLGEATEFEIITVMAICYFGKVNFCDVVLFETGLGGRFDSTNVIHPVLTIITNIGHDHMHILGNTLGEIAYEKAGIIKSGVPVITGVQDEEALQVIQKVAKENRANLYEMGNHFTALHKQSSENGEQFDFTCPFASFEDVRIAMKGSHQVGNAALALMAVMYVKTYLSFLIEEEEIRTGLQEAYWVGRFEKLQSNPDIIIDGAHNPEGIESLVKTVESHYKDKNVIVLFTALGDKQLHNMVGQLETIADEIIFTTFAFDRAISAGELASYAKKESKLVFENWKEAIDTKVEMIGENDVFIITGSLYFISEVRKYIREKN", "soluble on expression in E. coli": "not soluble"}
    ]}
  ]
}
